According to PMC13581288, “The chromokinesin Kid (KIF22) forms a homodimer, moves processively along microtubules, and transports double-stranded DNA” (eLife, 2024):

B1: KIF1A(1-393)LZ (other)
chain: MAGASVKVAVRVRPFNSREMSRDSKCIIQMSGSTTTIVNPKQPKETPKSFSFDYSYWSHTSPEDINYASQKQVYRDIGEEMLQHAFEGYNVCIFAYGQTGAGKSYTMMGKQEKDQQGIIPQLCEDLFSRINDTTNDNMSYSVEVSYMEIYCERVRDLLNPKNKGNLRVREHPLLGPYVEDLSKLAVTSYNDIQDLMDSGNKARTVAATNMNETSSRSHAVFNIIFTQKRHDAETNITTEKVSKISLVDLAGSERADSTGAKGTRLKEGANINKSLTTLGKVISALAEMDSGPNKNKKKKKTDFIPYRDSVLTWLLRENLGGNSRTAMVAALSPADINYDETLSTLRYADRAKQIRCNAVINEDPNNKLIRELKDEVTRLRDLLYAQGLGDITDLEDKVEELLSKNYHLENEVARL
B2: full-length Xenopus Kid tagged with mScarlet (XKidFL-mScarlet) (natural protein, UniProt Q9I869 1-651, looked up)
chain: MVLTGPLQRESVSMAKRVSMLDQHKKSSCARVRVAVRLRPYMDEKDEAKATTVCVRGLDSQSLEIVNWRNQLETMQYQFDAFYGDSASQREIYMGSVCHILPHLLIGQNASVFAYGPTGAGKTHTMLGNPNQPGVIPRAVRDLLQMSRTAASAPENENWTYTINMSYVEIYQEKVMDLLEPKNKDLPIREDKDHNILIPGVTQKMINSFADFDEHFIPASQNRTVASTKLNDRSSRSHAVLLIKVQKSQQVVPFRQLTGKLYLIDLAGSEDNRRTGNQGIRLKESGAINSSLFTLSKVVDALNQGLPRIPYRDSKLTRLLQDSLGGSAHSVMITNIAPEQTYYFDTLTALNFAAKSKQIINKPFSQETTQTVVQPAMKRPREETGHIAGSQKRKKSKNDSTESSPNSSMDTAGKQKLNLATLDPAVVERLLKLDKILTEKGKKKAQLLSTPKRERMALLKKWEESQMEIERLKEKQKELEQKAMEAEARLEKSNNSDLSDSSVSENTFRAPLRGRNTSTAKVKKVLRVLPMQGNSQLQSTVEEGIPVFEKKKKKKQVTCEGLENQPTWEMNMRTDLLESGKERILKLLNTGSVKELKSLQRIGDKKAKLIIGWREVNGPFKNVEELACLEGISAKQVSSFIKANIMSSIAS
notes: Kid (Kif22.S), Xenopus, full length; cDNA corresponding to GenBank BC070549.1; also called XKid-mScarlet; Full-length XKid; not shown: mScarlet, C-terminal, kept
B3: full-length human Kid tagged with mNeonGreen (hKidFL-mNeonGreen) (natural protein, UniProt Q14807 1-665, looked up)
chain: MAAGGSTQQRRREMAAASAAAISGAGRCRLSKIGATRRPPPARVRVAVRLRPFVDGTAGASDPPCVRGMDSCSLEIANWRNHQETLKYQFDAFYGERSTQQDIYAGSVQPILRHLLEGQNASVLAYGPTGAGKTHTMLGSPEQPGVIPRALMDLLQLTREEGAEGRPWALSVTMSYLEIYQEKVLDLLDPASGDLVIREDCRGNILIPGLSQKPISSFADFERHFLPASRNRTVGATRLNQRSSRSHAVLLVKVDQRERLAPFRQREGKLYLIDLAGSEDNRRTGNKGLRLKESGAINTSLFVLGKVVDALNQGLPRVPYRDSKLTRLLQDSLGGSAHSILIANIAPERRFYLDTVSALNFAARSKEVINRPFTNESLQPHALGPVKLSQKELLGPPEAKRARGPEEEEIGSPEPMAAPASASQKLSPLQKLSSMDPAMLERLLSLDRLLASQGSQGAPLLSTPKRERMVLMKTVEEKDLEIERLKTKQKELEAKMLAQKAEEKENHCPTMLRPLSHRTVTGAKPLKKAVVMPLQLIQEQAASPNAEIHILKNKGRKRKLESLDALEPEEKAEDCWELQISPELLAHGRQKILDLLNEGSARDLRSLQRIGPKKAQLIVGWRELHGPFSQVEDLERVEGITGKQMESFLKANILGLAAGQRCGAS
notes: Kid (KIF22), human, full length; cDNA corresponding to GenBank DQ895829.2; also called hKid-mNeonGreen; hKidFL-mNG; not shown: mNeonGreen, C-terminal, kept
B4: XKid(1-496)-mScarlet (domain or fragment, Xenopus, UniProt Q9I869 1-496, looked up)
chain: MVLTGPLQRESVSMAKRVSMLDQHKKSSCARVRVAVRLRPYMDEKDEAKATTVCVRGLDSQSLEIVNWRNQLETMQYQFDAFYGDSASQREIYMGSVCHILPHLLIGQNASVFAYGPTGAGKTHTMLGNPNQPGVIPRAVRDLLQMSRTAASAPENENWTYTINMSYVEIYQEKVMDLLEPKNKDLPIREDKDHNILIPGVTQKMINSFADFDEHFIPASQNRTVASTKLNDRSSRSHAVLLIKVQKSQQVVPFRQLTGKLYLIDLAGSEDNRRTGNQGIRLKESGAINSSLFTLSKVVDALNQGLPRIPYRDSKLTRLLQDSLGGSAHSVMITNIAPEQTYYFDTLTALNFAAKSKQIINKPFSQETTQTVVQPAMKRPREETGHIAGSQKRKKSKNDSTESSPNSSMDTAGKQKLNLATLDPAVVERLLKLDKILTEKGKKKAQLLSTPKRERMALLKKWEESQMEIERLKEKQKELEQKAMEAEARLEKSNNS
notes: deletion mutant made by PCR-based mutagenesis; also called XKid(1-497); not shown: mScarlet, C-terminal, kept

Key:
[1] = biological target: KIF1AMD-XKidSt (chimera of the KIF1A motor domain with the neck linker and coiled-coil domain of XKid) (not stated | Xenopus); assay: SEC; Superdex 200 Increase 10/300 GL on an NGC system; micromolar protein concentrations; UNC-104(1-653)-sfGFP (or mScarlet for XKidCC-mScarlet) run as size marker
[2] = biological target: the molecule itself; assay: as above

| Molecule | stoichiometry N [1] | stoichiometry N [2] |
| --- | --- | --- |
| KIF1AMD-XKidSt (chimera of the KIF1A motor domain with the neck linker and coiled-coil domain of XKid) | 2 | – |
| B1 | – | 2 |
| B2 | – | 2 |
| B3 | – | 2 |
| B4 | – | 2 |
